Reference: the RNAGym collection of RNA variant scans (doi:10.7554/elife.80360)

B1: CPEB3 Ribozyme (parent)
chain: GGGGGCCACAGCAGAAGCGUUCACGUCGCGGCCCCUGUCAGAUUCUGGUGAAUCUGCGAAUUCUGCUGU

Variants of: B1
Assay: self-cleavage, relative activity (ratio to wild type); higher = more cleavage; co-transcriptional

Variant	self-cleavage
C6U G25C	0.13
C6G G50U	0.37
C6G G50A	0.42
C6U	1.01
C6G	0.388
C6U C22G	0.205
C6G U64A	0.133
C6U C45U	1
C6U C45G	1.02
C6U C45A	1.02
C6U G65C	0.636
C6U G65U	0.719
C6U U64A	0.853
C6U U64C	0.829
C6U U64G	0.92
C6U A10U	0.999
C6U A10C	0.985
C6U G17A	0.315
C6U G17C	0.0825
C6A U64A	0.307
C6A U64G	0.469
C7A A51C	0.477
C7A A51G	0.514
C6U A59U	0.733

Variant	self-cleavage
C6U A59G	0.961
C6U A59C	0.586
C6U C33U	0.863
C6A U44G	0.416
C6A U44C	0.455
C6A U44A	0.373
C6G C18A	0.0602
C6G C18U	0.0723
C6G C18G	0.062
C6G U36A	0.0334
C6G U36G	0.105
C6A U38C	0.35
C6A U38G	0.117
C6U G58A	0.981
C6U G58C	0.909
C6U G47U	1.02
C6U G47A	1.01
C6U G47C	0.996
C6U C54G	0.733
C6U C54A	0.847
C6A U20A	0.0587
C6A U20C	0.204
C6G U20A	0.0487
C7A A23U	0.824

Variant	self-cleavage
C7A A23G	0.421
C7A C9U	0.934
C7A C9G	0.639
C6U C34A	0.426
C6U C34U	0.944
C7A A8U	0.769
C7A A8G	0.8
C6U G30U	0.235
C6U G30A	0.632
C6U G30C	0.348
C6G C24U	0.193
C6G C24A	0.0804
C6G C24G	0.085
C6G G65A	0.109
C6G G65U	0.226
C6G C35U	0.15
C6G C35A	0.0719
C6A G65A	0.451
C6A G65U	0.305
C6A G65C	0.157
C6A G56C	0.225
C6G G14C	0.0817
C6G G14A	0.0825
C6G U26A	0.188

Variant	self-cleavage
C6G U26G	0.224
C6U G48A	1.03
C6U G48C	0.995
C6A U67A	0.782
C6A U67C	0.883
C6A U61C	0.15
C6A U61G	0.242
C7A A13G	0.598
C7A A13U	0.274
C7A C22G	0.0999
C6U C24U	0.709
C6U C24A	0.582
C7A C29G	0.12
C6U G19A	0.117
C6U G19C	0.124
C6U C39G	0.899
C6U C39U	0.955
C6G A16U	0.151
C6G A16C	0.0895
C6U G56U	0.968
C6U G56C	0.772
C6G G25C	0.0497
C6G G25U	0.0634
C6G C29U	0.0888

Variant	self-cleavage
C6G C29G	0.0434
C6G U69C	0.797
C6G U69A	0.589
C6G U69G	0.639
C6G C66U	0.316
C6G C66A	0.18
C6U A42C	0.966
C6U A42U	0.957
C6G C57U	0.189
C6G C57A	0.0667
C6A G48C	0.693
C7A C18A	0.0823
C6G A10U	0.375
C6G A10G	0.459
C6U U55C	0.775
C6U U55G	0.888
C6U U55A	0.989
C6U C9G	1.02
C6U C9U	1.05
C6U C9A	1.03
C6U C66A	0.881
C6U C66G	0.939
C6U C66U	0.991
C6U U20G	0.174

Variant	self-cleavage
C6G G58C	0.294
C6G G58A	0.2
C6G G58U	0.402
C6U U38G	0.12
C6U U38C	0.929
C7A A15C	0.162
C7A A15G	0.457
C6G A13G	0.0914
C6A U46G	0.607
C6A U46C	0.657
C6A U46A	0.674
C6G G41U	0.252
C6G G41A	0.122
C6U U49C	1.02
C6U C35A	0.189
C6U G41C	0.708
C6U G41A	0.815
C6G A60U	0.137
C6G A60G	0.16
C6G G31U	0.967
C6G G31A	0.753
C6G C27A	0.0381
C6G C27G	0.0563
C6G C27U	0.0872

Variant	self-cleavage
C6U A15C	0.802
C6U A15G	0.981
C6U G14A	0.672
C6U A16C	0.12
C6U A16G	0.986
C6U A16U	0.841
C7A A10G	0.865
C7A A10C	0.76
C7A C27G	0.133
C7A C27U	0.142
C7A C27A	0.0789
C6A G50U	0.727
C6A G50C	0.594
C6G U44C	0.281
C6G U44A	0.224
C6G U44G	0.183
C6G C45A	0.227
C6G C45U	0.362
C6A G68A	0.881
C6A G68U	0.939
C6A G68C	0.889
C6U C32U	0.826
C6U C32G	0.246
